The values below come from patent EP3381935A1 (Tigo GmbH, dated 2018).

The Kd is a measure of binding affinity in units of concentration.

The target in test [1] is T1, hIFN-γ receptor on human amniotic WISH cells (human, UniProt P15260 18-489).
T1 sequence (looked up): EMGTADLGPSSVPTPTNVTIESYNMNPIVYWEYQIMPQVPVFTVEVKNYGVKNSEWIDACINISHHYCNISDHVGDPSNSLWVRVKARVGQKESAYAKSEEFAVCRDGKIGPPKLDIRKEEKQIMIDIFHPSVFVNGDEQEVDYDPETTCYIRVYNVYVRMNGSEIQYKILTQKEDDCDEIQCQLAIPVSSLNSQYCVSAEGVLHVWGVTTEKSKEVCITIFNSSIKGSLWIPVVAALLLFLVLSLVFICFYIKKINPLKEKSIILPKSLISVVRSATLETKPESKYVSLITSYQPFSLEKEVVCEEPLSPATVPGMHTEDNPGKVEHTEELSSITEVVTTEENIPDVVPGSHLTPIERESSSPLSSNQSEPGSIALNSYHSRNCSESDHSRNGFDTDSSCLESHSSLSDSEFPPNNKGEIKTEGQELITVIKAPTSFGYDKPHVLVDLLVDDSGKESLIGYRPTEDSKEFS
The test can be described thus: cell-based or functional assay.

Test [2] has as its target T2, recombinant hIFN-γ receptor (the extracellular part of the IFNGR1) (human, UniProt P15260 18-245).
T2 construct: extracellular domain; In solution for ITC; also called soluble (extracellular) part of the hIFN-γ receptor IFNGR1; interferon-gamma receptor
T2 sequence (looked up): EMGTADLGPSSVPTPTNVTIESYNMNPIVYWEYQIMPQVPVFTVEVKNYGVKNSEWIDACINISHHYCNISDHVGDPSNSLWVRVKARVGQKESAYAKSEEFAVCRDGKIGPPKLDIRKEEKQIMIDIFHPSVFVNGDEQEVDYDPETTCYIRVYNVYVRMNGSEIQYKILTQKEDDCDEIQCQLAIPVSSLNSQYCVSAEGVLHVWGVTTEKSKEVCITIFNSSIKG
The test is described as follows: ITC, IFNGR1 in the cell titrated with ligand, 20°C. On the technique in general: In ITC the heat of successive injections is recorded.

B1: K88Q (138 aa) (ligand, human, UniProt P01579 24-161, looked up)
chain: QDPYVKEAENLKKYFNAGHSDVADNGTLFLGILKNWKEESDRKIMQSQIVSFYFKLFKNFKDDQSIQKSVETIKEDMNVKFFNSNKKQRDDFEKLTNYSVTDLNVQRKAIHELIQVMAELSPAAKTGKRKRSQMLFRG
notes: range 1-138; also called Control 3: K88Q(138 aa); Control 2: K88Q
Regarding B1, the Competitive ability % in test [1] was 25%. In addition, the Kd in test [2] worked out at 18.9 nM.

B2: reference hIFN-γ (143 aa) (ligand, human, UniProt P01579 24-161, looked up)
chain: QDPYVKEAENLKKYFNAGHSDVADNGTLFLGILKNWKEESDRKIMQSQIVSFYFKLFKNFKDDQSIQKSVETIKEDMNVKFFNSNKKKRDDFEKLTNYSVTDLNVQRKAIHELIQVMAELSPAAKTGKRKRSQMLFRG
notes: mature; also called standard hIFN-γ; wild type hIFN-γ
With B2, in test [2], the Kd is 136 nM.

B3: anti-gamma mutant protein K88Q_T27Y (138 aa) (ligand)
chain: QDPYVKEAENLKKYFNAGHSDVADNGYLFLGILKNWKEESDRKIMQSQIVSFYFKLFKNFKDDQSIQKSVETIKEDMNVKFFNSNKKQRDDFEKLTNYSVTDLNVQRKAIHELIQVMAELSPAAKTGKRKRSQMLFRG
notes: Expressed in E. coli as a HIS-SUMO fusion and the tag was cleaved off; Positions count on the mature 143 aa hIFN-γ
For B3, the Competitive ability % in test [1] was determined as 35%. In addition, the Kd in test [2] was 28.2 nM.

B4: anti-gamma mutant protein K88Q_D41N (138 aa) (ligand)
chain: QDPYVKEAENLKKYFNAGHSDVADNGTLFLGILKNWKEESNRKIMQSQIVSFYFKLFKNFKDDQSIQKSVETIKEDMNVKFFNSNKKQRDDFEKLTNYSVTDLNVQRKAIHELIQVMAELSPAAKTGKRKRSQMLFRG
Consider B4, for which the Competitive ability % in test [1] was determined as 30%.
